We go through one molecule from patent publication US20090053198A1 (published 2009).

For the assay, the target named is T1, human E-selectin on CHO-E cells (human, UniProt P16581 22-610).
T1 construct: whole, on cells
T1 sequence (looked up): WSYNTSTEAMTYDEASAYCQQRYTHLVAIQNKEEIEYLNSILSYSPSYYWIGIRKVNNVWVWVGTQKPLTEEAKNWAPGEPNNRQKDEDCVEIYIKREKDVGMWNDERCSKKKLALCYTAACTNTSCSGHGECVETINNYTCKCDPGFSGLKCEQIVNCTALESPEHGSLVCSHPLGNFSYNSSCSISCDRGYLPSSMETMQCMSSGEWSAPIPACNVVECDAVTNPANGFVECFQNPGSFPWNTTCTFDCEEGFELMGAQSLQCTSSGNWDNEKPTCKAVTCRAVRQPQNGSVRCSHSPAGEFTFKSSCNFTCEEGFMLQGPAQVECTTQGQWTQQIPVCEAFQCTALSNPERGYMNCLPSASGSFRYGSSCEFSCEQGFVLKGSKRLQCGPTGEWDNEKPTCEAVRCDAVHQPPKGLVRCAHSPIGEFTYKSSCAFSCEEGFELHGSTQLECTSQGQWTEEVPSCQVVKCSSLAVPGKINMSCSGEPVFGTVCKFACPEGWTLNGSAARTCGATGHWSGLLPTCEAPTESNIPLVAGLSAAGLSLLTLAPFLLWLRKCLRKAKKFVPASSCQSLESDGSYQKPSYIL
The assay can be described thus: blot rolling assay: CHO-E perfused at 0.6 dyne/cm^2 over blotted ML-M membrane glycoproteins (˜130 kDa band). The source says:
Blot rolling assays: The blot rolling assay has been described previously²⁹. CHO-E were washed in PBS, and resuspended to 2×10⁶ cells/ml in assay buffer/10% glycerol. […] These blots were then placed in the parallel plate flow chamber, and CHO-E were perfused into the chamber at a shear stress of 0.6 dyne/cm²; an adjustment in the volumetric flow rate was made to account for the increase in viscosity due to the presence of 10% glycerol in the assay buffer. Molecular weight standards (SeeBlue® Plus2 prestained molecular weight standard; Invitrogen Corporation; Carlsbad, Calif.) were co-electrophoresed on adjacent lanes and served as a guide to aid placement of the flow chamber over the stained bands of interest. The number of tethering and rolling CHO-E was tabulated as function of the molecular weight region and compiled into an adhesion histogram. Negative controls were prepared by adding 10 mM EDTA to the assay buffer to chelate Ca²⁺ required for binding or treating CHO-E with anti E-selectin mAb, 68-5411, at 4° C. for 15 min. prior to use in adhesion assays.
For these experiments, we could not assess binding interactions over the entire lane due to the length restriction of the flow chamber; because the differences in HECA-reactivity in proteins from ML and NL clustered within mobilities encompassing 30 kDa-170 kDa, we set the field view over this range. […]

B1: PSGL-1 (P-selectin glycoprotein ligand-1) of G-CSF mobilized leukocytes (ligand, human, UniProt Q14242 42-412, looked up)
chain: QATEYEYLDYDFLPETEPPEMLRNSTDTTPLTGPGTPESTTVEPAARRSTGLDAGGAVTELTTELANMGNLSTDSAAMEIQTTQPAATEAQTTQPVPTEAQTTPLAATEAQTTRLTATEAQTTPLAATEAQTTPPAATEAQTTQPTGLEAQTTAPAAMEAQTTAPAAMEAQTTPPAAMEAQTTQTTAMEAQTTAPEATEAQTTQPTATEAQTTPLAAMEALSTEPSATEALSMEPTTKRGLFIPFSVSSVTHKGIPMAASNLSVNYPVGAPDHISVKQCLLAILILALVATIFFVCTVVLAVRLSRKGHMYPVRNYSPTEMVCISSLLPDGGEGPSATANGGLSKAKSPGLTPEPREDREGDDLTLHSFLP
modifications: sialofucosylated (HECA-452-reactive) glycans; positions not given
notes: Native glycoprotein from donor cells; seen as ˜220 kDa dimer and ˜130 kDa monomer on blots; also called ˜220 kDa band (dimer); ˜130 kDa band (monomer)
For the molecule B1, the binding result was “binds”.
